Measured values as given in paper PMC5993293.

Columns and labels:
[1] = biological target: GST-TA3mut (functionally impaired TA3 mutant, aa 361-370 replaced by alanines, fused to GST) (mouse) (UniProt Q04207); assay: affinity purification with mass spectrometry; SILAC; GST baits (GST-TA3, GST-TA3mut) immobilised; nuclear extracts of TNF-α-treated HeLa S3 cells or of 3T3 fibroblasts, 4 hours at 4°C; wash 20 mM Hepes pH 7.6, 1 mM EDTA, 10% glycerol, 0.1% NP40, 100 mM KCl; elution with 0.2% sarkosyl; label swap, four biological replicates
Sequence of UniProt Q04207 (Q04207 other isoform, or with tags, fused parts or gaps, change not shown): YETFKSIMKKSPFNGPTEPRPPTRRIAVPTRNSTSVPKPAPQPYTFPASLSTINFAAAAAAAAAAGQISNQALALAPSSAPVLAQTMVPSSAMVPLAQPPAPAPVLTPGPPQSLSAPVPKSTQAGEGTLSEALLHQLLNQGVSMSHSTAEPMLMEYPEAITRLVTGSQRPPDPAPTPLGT

[2] = biological target: GST-TA3mut (functionally impaired TA3 mutant, aa 361-370 replaced by alanines, fused to GST) (mouse) (UniProt Q04207); assay: pull-down; GST alone, GST-TA3 or GST-TA3mut as baits; transfected HEK-293 cells overexpressing tagged Zbtb7a; Zbtb7a detected by immunoblotting

| Substance | fold reduction of binding against unmutated TA3 [1] | fold reduction of binding against unmutated TA3 [2] |
| --- | --- | --- |
| Zbtb7a, endogenous in nuclear extracts of TNF-α-stimulated human HeLa S3 cells (from UniProt O95365 1-584) (natural protein) | 5 to 7 times | – |
| tagged Zbtb7a overexpressed in transfected HEK-293 cells (from UniProt O88939 1-569) (natural protein) | – | 2 times |
